Assay: Compatibility of perhydrolase with commercial moisturizer lotion, PAA indicator strip
Assay type: physicochemical
Settings: ~0.1 mg/mL in lotion, room temperature (~21° C.)
Experimental: Lotion “A” was prepared by mixing 0.7667 g of SUAVE® Advanced Therapy Moisturizer (Lot#12148JU41, Unilever, CT) with 40 μL of perhydrolase fusion C277S-HC263 (10 mg/mL) in a 2-mL microfuge using an overhead mixer at 200 rpm for about 3 min. The concentration of C277S-HC263 (SEQ ID NO: 288) was about 0.1 mg/mL in lotion A.
Two control samples, i.e., A-control1 and A-control2, were prepared by replacing perhydrolase (C277S-HC263; SEQ ID NO: 288) with same volume of DI water and 50 mM phosphate buffer (pH 8), respectively.
Solution “B” was made by combining 44 μl of triacetin, 899 μL of 50 mM, pH 8, phosphate buffer, and 57 μL of H2O2 (30 wt %). Solution B was freshly made every time just before running the PAA indicator strip test.
After a predetermined time, 50 μl of lotion “A” and 50 μl of solution “B” were mixed gently for about 1 min. PAA indicator strips were used to test for the presence of PAA in the mixture as described in Example 10.

B1: C277S-HC263: C277S variant of Thermotoga maritima perhydrolase fused via a flexible linker to hair-binding domain HC263 (protein)
chain: MAFFDLPLEELKKYRPERYEEKDFDEFWEETLAESEKFPLDPVFERMESHLKTVEAYDVTFSGYRGQRIKGWLLVPKLEEEKLPCVVQYIGYNGGRGFPHDWLFWPSMGYICFVMDTRGQGSGWLKGDTPDYPEGPVDPQYPGFMTRGILDPRTYYYRRVFTDAVRAVEAAASFPQVDQERIVIAGGSQGGGIALAVSALSKKAKALLCDVPFLCHFRRAVQLVDTHPYAEITNFLKTHRDKEEIVFRTLSYFDGVNFAARAKIPALFSVGLMDNISPPSTVFAAYNYYAGPKEIRIYPYNNHEGGGSFQAVEQVKFLKKLFEKGGPGSGGAGSPGSAGGPGSPSAQSQLPDKHSGLHERAPQRYGPEPEPEPEPIPEPPKEAPVVIEKPKPKPKPKPKPPAHDHKNQKETHQRHAAGSGGGGSPHHHHHH
  time perhydrolase activity retained in SUAVE® moisturizer: at least 30 days

From patent US20130171217A1, “ENZYMATIC PERACID GENERATION FOR USE IN SKIN CARE PRODUCTS” (E I DU PONT DE NEMOURS AND COMPANY, priority 2010, published 2013)
